Legend:
Test in all cases: SPR, Biacore 8K+, 37 C; antibody captured by anti-human Fc, cytokine injected
human IL-12 = target: T1, human IL-12 (human, UniProt P29460 23-328; P29459 23-219)
T1 construct: also called recombinant human IL-12 (p40/p35)
T1 sequence 1: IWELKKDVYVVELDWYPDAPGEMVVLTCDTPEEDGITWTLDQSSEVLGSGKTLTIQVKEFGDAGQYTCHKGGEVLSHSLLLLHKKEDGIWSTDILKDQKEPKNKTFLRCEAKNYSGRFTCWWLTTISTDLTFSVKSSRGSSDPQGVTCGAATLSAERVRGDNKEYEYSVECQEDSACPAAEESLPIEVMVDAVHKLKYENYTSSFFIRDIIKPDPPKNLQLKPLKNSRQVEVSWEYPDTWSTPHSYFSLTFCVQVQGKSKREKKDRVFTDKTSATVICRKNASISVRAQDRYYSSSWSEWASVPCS
T1 sequence 2: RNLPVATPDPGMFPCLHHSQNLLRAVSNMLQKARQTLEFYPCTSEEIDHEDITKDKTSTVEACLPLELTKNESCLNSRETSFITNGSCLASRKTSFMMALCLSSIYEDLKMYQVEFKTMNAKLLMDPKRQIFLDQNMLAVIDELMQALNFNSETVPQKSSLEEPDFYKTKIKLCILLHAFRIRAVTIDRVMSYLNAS
Protocol: (§1) In order to determine binding to TL1A, kinetic assays were conducted at 37° C. using a collection rate of 10 Hz on a Biacore™ T200 instrument (GE Healthcare). […] For the analysis of the p40 binding arm, kinetic assays were conducted at 37° C. using a collection rate of 10 Hz on a Biacore™ 8 K+ instrument (GE Healthcare).

rabbit IL-23 = target: T2, rabbit IL-23 (rabbit)
T2 chain 1: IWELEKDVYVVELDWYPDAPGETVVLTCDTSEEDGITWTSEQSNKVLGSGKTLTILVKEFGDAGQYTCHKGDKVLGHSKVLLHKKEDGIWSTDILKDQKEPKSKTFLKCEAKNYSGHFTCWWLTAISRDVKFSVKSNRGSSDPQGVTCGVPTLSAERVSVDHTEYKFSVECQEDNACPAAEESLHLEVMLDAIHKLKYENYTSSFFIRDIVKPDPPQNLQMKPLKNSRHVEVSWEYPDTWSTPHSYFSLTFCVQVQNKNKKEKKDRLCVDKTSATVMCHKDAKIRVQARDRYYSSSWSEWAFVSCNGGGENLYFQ
T2 chain 2: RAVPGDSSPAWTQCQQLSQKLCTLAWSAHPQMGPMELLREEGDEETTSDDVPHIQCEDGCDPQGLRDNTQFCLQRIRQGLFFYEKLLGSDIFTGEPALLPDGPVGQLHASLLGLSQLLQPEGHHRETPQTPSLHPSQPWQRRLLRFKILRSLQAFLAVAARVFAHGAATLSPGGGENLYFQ
Protocol: as §1

cynomolgus monkey IL-23 = target: T3, cynomolgus monkey IL-23 (cynomolgus monkey, limits assumed)
T3 construct: also called cyno IL-23
T3 chain 1: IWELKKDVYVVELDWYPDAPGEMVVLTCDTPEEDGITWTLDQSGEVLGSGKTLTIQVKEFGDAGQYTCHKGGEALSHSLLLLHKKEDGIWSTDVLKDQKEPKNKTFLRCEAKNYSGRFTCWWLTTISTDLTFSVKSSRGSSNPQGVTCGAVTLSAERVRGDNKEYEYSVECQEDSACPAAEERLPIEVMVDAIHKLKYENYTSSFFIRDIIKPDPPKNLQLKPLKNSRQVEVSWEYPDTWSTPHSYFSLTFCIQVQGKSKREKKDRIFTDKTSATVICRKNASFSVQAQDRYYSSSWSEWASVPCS
T3 chain 2: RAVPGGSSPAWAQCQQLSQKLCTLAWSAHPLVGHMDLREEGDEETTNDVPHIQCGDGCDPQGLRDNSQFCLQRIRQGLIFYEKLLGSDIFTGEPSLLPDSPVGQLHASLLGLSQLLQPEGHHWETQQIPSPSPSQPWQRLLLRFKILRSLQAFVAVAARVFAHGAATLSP
Protocol: as §1

rat IL-23 = target: T4, rat IL-23 (rat, UniProt P43432 23-335; Q91Z84 22-196, limits assumed)
T4 chain 1: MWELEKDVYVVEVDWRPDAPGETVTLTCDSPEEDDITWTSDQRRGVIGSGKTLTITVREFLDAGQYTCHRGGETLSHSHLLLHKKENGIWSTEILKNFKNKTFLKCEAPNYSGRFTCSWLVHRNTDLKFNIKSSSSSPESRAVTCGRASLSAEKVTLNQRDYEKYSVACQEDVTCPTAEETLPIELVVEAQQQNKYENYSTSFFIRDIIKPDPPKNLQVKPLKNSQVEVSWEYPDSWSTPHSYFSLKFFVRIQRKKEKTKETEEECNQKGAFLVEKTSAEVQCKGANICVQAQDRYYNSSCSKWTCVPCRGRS
T4 chain 2: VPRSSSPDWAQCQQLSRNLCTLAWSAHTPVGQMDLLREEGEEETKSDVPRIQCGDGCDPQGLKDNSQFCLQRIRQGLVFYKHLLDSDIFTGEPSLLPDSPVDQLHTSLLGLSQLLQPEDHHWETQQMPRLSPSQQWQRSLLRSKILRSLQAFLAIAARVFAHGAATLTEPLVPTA
Protocol: as §1

mouse IL-23 = target: T5, mouse IL-23 (mouse, UniProt P43432 23-335; Q9EQ14 22-196)
T5 sequence 1: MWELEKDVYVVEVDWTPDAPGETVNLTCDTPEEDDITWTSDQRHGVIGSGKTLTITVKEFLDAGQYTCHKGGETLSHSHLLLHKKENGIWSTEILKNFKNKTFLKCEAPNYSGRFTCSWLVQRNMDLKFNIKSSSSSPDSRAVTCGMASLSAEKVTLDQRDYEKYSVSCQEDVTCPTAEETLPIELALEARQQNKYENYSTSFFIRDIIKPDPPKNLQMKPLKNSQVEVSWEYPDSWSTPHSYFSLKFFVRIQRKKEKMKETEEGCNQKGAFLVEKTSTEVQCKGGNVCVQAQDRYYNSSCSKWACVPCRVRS
T5 sequence 2: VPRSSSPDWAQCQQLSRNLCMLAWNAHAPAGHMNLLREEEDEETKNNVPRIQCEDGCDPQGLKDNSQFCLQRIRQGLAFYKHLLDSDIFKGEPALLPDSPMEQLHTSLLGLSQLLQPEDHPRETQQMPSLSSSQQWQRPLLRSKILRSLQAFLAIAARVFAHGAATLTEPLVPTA
Protocol: as §1

B1: p40TL1A-0033 bispecific antibody (bispecific antibody, human IgG1, kappa)
heavy: EVQLVQSGAEVKKPGESLKISCKGSGYSFTTYWLGWVRQMPGKGLDWIGIMSPVDSDIRYSPSFQGQVTMSVDKSITTAYLQWNSLKASDTAMYYCARRRPGQGYFDFWGQGTLVTVSSASTKGPSVFPLAPSSKSTSGGTAALGCLVKDYFPEPVTVSWNSGALTSGVHTFPAVLQSSGLYSLSSVVTVPSSSLGTQTYICNVNHKPSNTKVDKKVEPKSCDKTHTCPPCPAPEAAGAPSVFLFPPKPKDTLMISRTPEVTCVVVDVSHEDPEVKFNWYVDGVEVHNAKTKPREEQYNSTYRVVSVLTVLHQDWLNGKEYKCKVSNKALPAPIEKTISKAKGQPREPQVCTLPPSREEMTKNQVSLWCLVKGFYPSDIAVEWESNGQPENNYKTTPPVLDSDGSFFLYSKLTVDKSRWQQGNVFSCSVLHEALHSHYTQKSLSLSPGK
light: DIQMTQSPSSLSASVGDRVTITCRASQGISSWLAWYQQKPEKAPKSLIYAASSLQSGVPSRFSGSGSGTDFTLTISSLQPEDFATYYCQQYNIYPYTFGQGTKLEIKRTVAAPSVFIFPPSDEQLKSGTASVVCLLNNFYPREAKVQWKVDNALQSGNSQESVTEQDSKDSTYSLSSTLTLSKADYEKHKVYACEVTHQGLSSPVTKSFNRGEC
chain 1: not shown
chain 2: QVQLVQSGAEVKKPGASVKVSCKASGYDYTYYGISWVRQAPGQGLEWMGWISTYNTGTHYAPSLQGRVTMTTDTSTSTAYMELRSLRSDDTAVYYCARESYYGSGAFRGGMDVWGQGTTVTVSSASTKGPSVFPLAPSSKSTSGGTAALGCLVKDYFPEPVTVSWNSGALTSGVHTFPAVLQSSGLYSLSSVVTVPSSSLGTQTYICNVNHKPSNTKVDKKVEPKSC
notes: Single cell KiH, modified Fd format; IgG1 effector-function-minimized Fc with LS mutations
Kd (human IL-12): 0.123 nM | koff (human IL-12): 0.000258 s⁻¹ | kon (human IL-12): 2.1e+06 M⁻¹ s⁻¹ | binding result (rabbit IL-23): no binding (tested: 200 nM) | Kd (cynomolgus monkey IL-23): 0.281 nM | koff (cynomolgus monkey IL-23): 0.000542 s⁻¹ | kon (cynomolgus monkey IL-23): 1.93e+06 M⁻¹ s⁻¹ | binding result (rat IL-23): no binding (tested: 200 nM) | binding result (mouse IL-23): no binding (tested: 200 nM)

— patent US20240059799A1 (Pfizer, published 2024)
